Reference: patent US20170258835A1 (University of Pennsylvania, published 2017)

These binders were tested against T1, CD27-Z CLEAR (UniProt P26842 20-260; P20963 52-163) (assay: flow cytometry, T cells co-electroporated with CD27-Z RNA and bi-specific antibody RNA, stained with anti-mouse IgG Fab (streptavidin APC) and anti-CD27 FITC; controls: CD27Z alone Q2 2.52 and Q3 9.39, NO EP Q2 0.089 and Q3 1.92).
T1 construct: also called CD27 CLEAR
T1 sequence (P26842 other isoform, or with tags, fused parts or gaps): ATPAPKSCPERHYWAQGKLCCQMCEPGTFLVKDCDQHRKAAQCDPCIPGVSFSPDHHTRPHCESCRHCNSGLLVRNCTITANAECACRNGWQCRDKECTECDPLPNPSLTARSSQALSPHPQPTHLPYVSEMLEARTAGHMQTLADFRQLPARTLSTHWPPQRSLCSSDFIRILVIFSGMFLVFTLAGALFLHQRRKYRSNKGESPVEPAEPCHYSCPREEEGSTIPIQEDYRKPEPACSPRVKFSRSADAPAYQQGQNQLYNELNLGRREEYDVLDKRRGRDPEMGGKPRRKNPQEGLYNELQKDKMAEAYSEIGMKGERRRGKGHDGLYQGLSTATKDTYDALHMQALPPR

| percent of cells CD27+ mIgG Fab+ (Q2) | percent of cells CD27- mIgG Fab+ (Q3) | Binder |
| --- | --- | --- |
| 13.8 | 84.2 | C2177.CD19 bi-specific antibody (bispecific antibody, anti-CD27 (C2177) x anti-CD19; also called aCD27-aCD19) DIVLTQSPASLAVSLGQRATISCKASQSVDYAGDSYMNWYQQKPGQPPKLLIYAASNLESGIPARFSGSGSGTDFTLNIHPVEEEDAATYYCQQSNEDPYTFGGGTKLEIKGGGGSGGGGSGGGGSQVQLQQSGPELVKPGASVKISCKASGYAFSSSWMNWVKQRPGKGLEWIGRIYPGDGDTNYNGKFKGKATLTADKSSSTAYMQLSSLTSEDSAVYFCARSDYYGDYGFAYWGQGTLVTVSAGGGGSDIQMTQTTSSLSASLGDRVTISCRASQDISKYLNWYQQKPDGTVKLLIYHTSRLHSGVPSRFSGSGSGTDYSLTISNLEQEDIATYFCQQGNTLPYTFGGGTKLEITGGGGSGGGGSGGGGSEVKLQESGPGLVAPSQSLSVTCTVSGVSLPDYGVSWIRQPPRKGLEWLGVIWGSETTYYNSALKSRLTIIKDNSKSQVFLKMNSLQTDDTAIYYCAKHYYYGGSYAMDYWGQGTSVTVSS |
| 7.58 | 18.8 | M708.CD19 bi-specific antibody (bispecific antibody, anti-CD27 (M708) x anti-CD19; also called aCD27-aCD19) DIQMTQSPSSLSASVGDRVTITCRASKSVSTSGYSFMHWYQQKPGKAPKLLIYVGSRLDYGVPSRFSGSGSGTDFTLTISSLQPEDFATYYCQHSRELPWTFGQGTKVEIKGGGGSGGGGSGGGGSEVQLLESGGGLVQPGGSLRLSCAASGFTFSSYTMSWVRQAPGKGLEWVSVIDHGGGSTHYPDSVKGRFTISRDNSKNTLYLQMNSLRAEDTAVYYCARHRGNPFDYWGQGTLVTVSSGGGGSDIQMTQTTSSLSASLGDRVTISCRASQDISKYLNWYQQKPDGTVKLLIYHTSRLHSGVPSRFSGSGSGTDYSLTISNLEQEDIATYFCQQGNTLPYTFGGGTKLEITGGGGSGGGGSGGGGSEVKLQESGPGLVAPSQSLSVTCTVSGVSLPDYGVSWIRQPPRKGLEWLGVIWGSETTYYNSALKSRLTIIKDNSKSQVFLKMNSLQTDDTAIYYCAKHYYYGGSYAMDYWGQGTSVTVSS |
| 0.35 | 52.2 | M709.CD19 bi-specific antibody (bispecific antibody, anti-CD27 (M709) x anti-CD19; also called aCD27-aCD19) DIVMTQSPDSLAVSLGERATINCKASQSVDYAGESFMNWYQQKPGQPPKLLIYAASNLESGVPDRFSGSGSGTDFTLTISSLQAEDVAVYYCQQSNEDPYTFGQGTKLEIKGGGGSGGGGSGGGGSEVQLVQSGAEVKKPGESLKISCKGSGYAFSSSWMNWVRQMPGKGLEWMGRIYAGDADTAYSPSFQGQVTISADKSISTAYLQWSSLKASDTAMYYCARSDYYGDYGFAYWGQGTLVTVSSGGGGSDIQMTQTTSSLSASLGDRVTISCRASQDISKYLNWYQQKPDGTVKLLIYHTSRLHSGVPSRFSGSGSGTDYSLTISNLEQEDIATYFCQQGNTLPYTFGGGTKLEITGGGGSGGGGSGGGGSEVKLQESGPGLVAPSQSLSVTCTVSGVSLPDYGVSWIRQPPRKGLEWLGVIWGSETTYYNSALKSRLTIIKDNSKSQVFLKMNSLQTDDTAIYYCAKHYYYGGSYAMDYWGQGTSVTVSS |
